Test results as given in US20030113711A1, “Protein kinase peptide substrate determination using peptide libraries” (priority 2001, published 2003).

Tests used:
Type in all cases: biochemical
[1] = substrate: CC[C@H](C)[C@H](NC(=O)[C@H](CCC(=O)O)NC(=O)[C@H](CCC(=O)O)NC(=O)[C@H](Cc1c[nH]cn1)NC(=O)[C@H](C)NC(=O)[C@H](CCCNC(=N)N)NC(=O)CCCCCNC(=O)CCCC[C@@H]1SC[C@@H]2NC(=O)N[C@@H]21)C(=O)N[C@@H](Cc1ccc(O)cc1)C(=O)N[C@@H](Cc1c[nH]cn1)C(=O)N[C@@H](Cc1ccccc1)C(=O)N[C@@H](Cc1ccccc1)C(=O)N[C@@H](Cc1ccccc1)C(=O)N[C@@H](C)C(=O)N[C@@H](CCCCN)C(=O)N[C@@H](CCCCN)C(=O)N[C@@H](CCCCN)C(N)=O; assay: Two-substrate kinetic comparison with known substrate, peptide and ATP varied simultaneously; conditions: other: ErbB-4; peptide and ATP concentrations varied simultaneously, two-substrate fit
Method: (§1) In a separate experiment, the kinetic parameters of both peptide number 1 shown in Table 2, and a peptide with the sequence Biotin-Ahx-G-G-M-E-D-I-Y-F-E-F-M-G-G-K-K-K-amide (SEQ ID NO: 17), which has been previously identified as an ErbB-2 substrate (Jan et. al., (2000), Biochemistry 39: 9786-803), were determined and compared. In this experiment, both peptide and ATP concentrations were varied, and the resulting data was simultaneously fit to an equation representing a two-substrate enzyme reaction using SIGMAPLOT®. Data was collected using the kinases ErbB-2, ErbB-4, and EGFR. The results of this experiment are shown in Table 3 and indicate that for all three kinases tested, peptide number 1 shown in Table 2 is kinetically at least equivalent (based on kcat/Km values) to the known peptide substrate identified by Jan et al.

[2] = substrate: CC[C@H](C)[C@H](NC(=O)[C@H](CC(=O)O)NC(=O)[C@H](CCC(=O)O)NC(=O)[C@H](CCSC)NC(=O)CNC(=O)CNC(=O)CCCCCNC(=O)CCCC[C@@H]1SC[C@@H]2NC(=O)N[C@@H]21)C(=O)N[C@@H](Cc1ccc(O)cc1)C(=O)N[C@@H](Cc1ccccc1)C(=O)N[C@@H](CCC(=O)O)C(=O)N[C@@H](Cc1ccccc1)C(=O)N[C@@H](CCSC)C(=O)NCC(=O)NCC(=O)N[C@@H](CCCCN)C(=O)N[C@@H](CCCCN)C(=O)N[C@@H](CCCCN)C(N)=O; assay: as above; conditions: other: ErbB-4; peptide and ATP concentrations varied simultaneously, two-substrate fit
Method: as §1

[3] = substrate: CC[C@H](C)[C@H](NC(=O)[C@H](Cc1ccccc1)NC(=O)[C@H](Cc1c[nH]cn1)NC(=O)[C@H](Cc1ccc(O)cc1)NC(=O)[C@H](CCC(=O)O)NC(=O)[C@H](CCC(=O)O)NC(=O)[C@H](CCC(=O)O)NC(=O)[C@H](Cc1c[nH]cn1)NC(=O)[C@H](C)NC(=O)[C@H](CCCNC(=N)N)NC(=O)CCCCCNC(=O)CCCC[C@@H]1SC[C@@H]2NC(=O)N[C@@H]21)C(=O)N[C@@H](Cc1ccccc1)C(=O)N[C@@H](C)C(=O)N[C@@H](CCCCN)C(=O)N[C@@H](CCCCN)C(=O)N[C@@H](CCCCN)C(N)=O; assay: Kinetic evaluation of peptide substrates, varying peptide at fixed ATP (phosphocellulose filter, [γ-33P]ATP); conditions: other: ErbB-4; Km for peptide; ATP concentration >10 × Km (200 μM ATP); pH 7.5; 23.0 °C
Method: (§2) Peptide sequences identified as preferred substrates for ErbB-2 using the methods described in Laboratory Example 3 were synthesized. The kcat and Km values for each peptide were determined as follows, using the kinases ErbB-2, ErbB-4, and EGFR.
(§3) Reactions were performed in 96-well polystyrene round bottom plates in a final volume of 45 μL. Reaction mixtures contained 50 mM MOPS, pH 7.5, 10 mM MnCl2, 1 mM dithiothreitol (DTT), 200 μM ATP, 1.0 μCi [γ-^33P] ATP, and varying concentrations of peptide. The reaction was initiated by adding the purified kinase of interest and halted after 10 minutes at 23° C. (room temperature) by adding 45 μL of 0.5% phosphoric acid in water. A 75 μL aliquot of the halted reaction mixture was then transferred to MAPH phosphocellulose filter plates (Millipore, Bedford, Mass.). The plates were filtered three times with 0.2 mL of 0.5 percent phosphoric acid. Scintillation cocktail (50 μL) was added to each well, and the plate was analyzed by counting in a Packard TOPCOUNT® scintillation counter (Packard Instrument Co., Meriden, Conn.). In these assays, the concentration of ATP was greater than ten-fold higher than the Km for ATP, which permitted the kinetic data to be treated as a pseudo-first-order reaction with varying peptide concentration. All experiments were performed in quadruplicate and the average value for each data point was analyzed. The Km and Vmax values were calculated by fitting the data to the Henri-Michaelis-Menten equation by non-linear regression using SIGMAPLOT® (SPSS Science, Chicago, Ill.). kcat values were calculated using the Vmax value, and are based on the protein concentration of the enzyme preparation and an estimate of purity determined from an evaluation of a Coomassie Blue stained SDS-polyacrylamide gel.

[4] = substrate: CC[C@H](C)[C@H](NC(=O)[C@H](CCC(=O)O)NC(=O)[C@H](CCC(=O)O)NC(=O)[C@H](Cc1c[nH]cn1)NC(=O)[C@H](C)NC(=O)[C@H](CCCNC(=N)N)NC(=O)CCCCCNC(=O)CCCC[C@@H]1SC[C@@H]2NC(=O)N[C@@H]21)C(=O)N[C@@H](Cc1ccc(O)cc1)C(=O)N[C@@H](Cc1c[nH]cn1)C(=O)N[C@@H](Cc1ccccc1)C(=O)N[C@@H](Cc1ccccc1)C(=O)N[C@@H](Cc1ccccc1)C(=O)N[C@@H](C)C(=O)N[C@@H](CCCCN)C(=O)N[C@@H](CCCCN)C(=O)N[C@@H](CCCCN)C(N)=O; assay: as above; conditions: other: ErbB-4; Km for peptide; ATP concentration >10 × Km (200 μM ATP); pH 7.5; 23.0 °C
Method: as §2, §3

[5] = substrate: CC[C@H](C)[C@H](NC(=O)[C@H](CCC(=O)O)NC(=O)[C@H](Cc1c[nH]cn1)NC(=O)[C@H](Cc1c[nH]cn1)NC(=O)[C@H](C)NC(=O)[C@H](CCCNC(=N)N)NC(=O)CCCCCNC(=O)CCCC[C@@H]1SC[C@@H]2NC(=O)N[C@@H]21)C(=O)N[C@@H](Cc1ccc(O)cc1)C(=O)N[C@@H](Cc1c[nH]cn1)C(=O)N[C@@H](Cc1ccccc1)C(=O)N[C@@H](Cc1ccccc1)C(=O)N[C@@H](Cc1ccccc1)C(=O)N[C@@H](C)C(=O)N[C@@H](CCCCN)C(=O)N[C@@H](CCCCN)C(=O)N[C@@H](CCCCN)C(N)=O; assay: as above; conditions: other: ErbB-4; Km for peptide; ATP concentration >10 × Km (200 μM ATP); pH 7.5; 23.0 °C
Method: as §2, §3

[6] = substrate: C[C@H](NC(=O)[C@H](CCCNC(=N)N)NC(=O)CCCCCNC(=O)CCCC[C@@H]1SC[C@@H]2NC(=O)N[C@@H]21)C(=O)N[C@@H](Cc1c[nH]cn1)C(=O)N[C@@H](CCC(=O)O)C(=O)N[C@@H](CCC(=O)O)C(=O)N[C@@H](CCC(=O)O)C(=O)N[C@@H](Cc1ccc(O)cc1)C(=O)N[C@@H](Cc1c[nH]cn1)C(=O)N[C@@H](Cc1ccccc1)C(=O)N[C@@H](Cc1ccccc1)C(=O)N[C@@H](Cc1ccccc1)C(=O)N[C@@H](C)C(=O)N[C@@H](CCCCN)C(=O)N[C@@H](CCCCN)C(=O)N[C@@H](CCCCN)C(N)=O; assay: as above; conditions: other: ErbB-4; Km for peptide; ATP concentration >10 × Km (200 μM ATP); pH 7.5; 23.0 °C
Method: as §2, §3

B1: ErbB-4 (Homo sapiens) (protein)
chain: QSVCAGTENKLSSLSDLEQQYRALRKYYENCEVVMGNLEITSIEHNRDLSFLRSVREVTGYVLVALNQFRYLPLENLRIIRGTKLYEDRYALAIFLNYRKDGNFGLQELGLKNLTEILNGGVYVDQNKFLCYADTIHWQDIVRNPWPSNLTLVSTNGSSGCGRCHKSCTGRCWGPTENHCQTLTRTVCAEQCDGRCYGPYVSDCCHRECAGGCSGPKDTDCFACMNFNDSGACVTQCPQTFVYNPTTFQLEHNFNAKYTYGAFCVKKCPHNFVVDSSSCVRACPSSKMEVEENGIKMCKPCTDICPKACDGIGTGSLMSAQTVDSSNIDKFINCTKINGNLIFLVTGIHGDPYNAIEAIDPEKLNVFRTVREITGFLNIQSWPPNMTDFSVFSNLVTIGGRVLYSGLSLLILKQQGITSLQFQSLKEISAGNIYITDNSNLCYYHTINWTTLFSTINQRIVIRDNRKAENCTAEGMVCNHLCSSDGCWGPGPDQCLSCRRFSRGRICIESCNLYDGEFREFENGSICVECDPQCEKMEDGLLTCHGPGPDNCTKCSHFKDGPNCVEKCPDGLQGANSFIFKYADPDRECHPCHPNCTQGCNGPTSHDCIYYPWTGHSTLPQHARTPLIAAGVIGGLFILVIVGLTFAVYVRRKSIKKKRALRRFLETELVEPLTPSGTAPNQAQLRILKETELKRVKVLGSGAFGTVYKGIWVPEGETVKIPVAIKILNETTGPKANVEFMDEALIMASMDHPHLVRLLGVCLSPTIQLVTQLMPHGCLLEYVHEHKDNIGSQLLLNWCVQIAKGMMYLEERRLVHRDLAARNVLVKSPNHVKITDFGLARLLEGDEKEYNADGGKMPIKWMALECIHYRKFTHQSDVWSYGVTIWELMTFGGKPYDGIPTREIPDLLEKGERLPQPPICTIDVYMVMVKCWMIDADSRPKFKELAAEFSRMARDPQRYLVIQGDDRMKLPSPNDSKFFQNLLDEEDLEDMMDAEEYLVPQAFNIPPPIYTSRARIDSNRSEIGHSPPPAYTPMSGNQFVYRDGGFAAEQGVSVPYRAPTSTIPEAPVAQGATAEIFDDSCCNGTLRKPVAPHVQEDSSTQRYSADPTVFAPERSPRGELDEEGYMTPMRDKPKQEYLNPVEENPFVSRRKNGDLQALDNPEYHNASNGPPKAEDEYVNEPLYLNTFANTLGKAEYLKNNILSMPEKAKKAFDNPDYWNHSLPPRSTLQHPDYLQEYSTKYFYKQNGRIRPIVAENPEYLSEFSLKPGTVLPPPPYRHRNTVV
In the case of B1, the Km [1] is reported as 41 µM, the kcat [1] is reported as 0.105 s⁻¹ and the kcat/Km [1] is reported as 2500 M⁻¹ s⁻¹. The Km [2] was 144 µM, the kcat [2] was 0.0767 s⁻¹ and the kcat/Km [2] was 533 M⁻¹ s⁻¹. The Km [3] was 12.5 µM, the kcat [3] was 0.0217 s⁻¹ and the kcat/Km [3] was 1670 M⁻¹ s⁻¹. The Km [4] was 8 µM, the kcat [4] was 0.0683 s⁻¹ and the kcat/Km [4] was 8500 M⁻¹ s⁻¹. For the same protein, the Km [5] was 37.6 µM, the kcat [5] was 0.0767 s⁻¹ and the kcat/Km [5] was 2000 M⁻¹ s⁻¹. It also gave a Km [6] of 6 µM, a kcat [6] of 0.015 s⁻¹ and a kcat/Km [6] of 2500 M⁻¹ s⁻¹.
